This assay addresses T1, […] pentapeptide of the McpB (Aer2) chemoreceptor (Pseudomonas aeruginosa PAO1).
T1 construct: also called GWEEF; McpB pentapeptide; source: synthetic peptide (Biomedal S.L., Seville, Spain)
As to the kind of experiment: ITC. Particulars: both partners purified.

B1: P. aeruginosa PAO1 CheB2 (PA0173) (enzyme)
chain: MPISVLVVDDSALIRSLLKEIIQADPELRLVGCAPDAFVARDLIKQHAPDVISLDVEMPRMDGLTFLDKLMKARPTPVLMISSLTERGSEATLRALELGAVDFIAKPRLGIAEGMQAYAEEIRAKLKTVARARLRRRAADAPAPPESAAPLLSTEKIIALGASTGGTEALKEVLLGLPAHSPGVVITQHMPPGFTRSFAERLDRLTRLSVSEARDGDRILPGHALVAPGDHHMEVQRSGANYVVRLNRQAQVNGHRPAVDVMFESLARCAGRNLLAGLLTGMGKDGARGLLAIRQAGGYTLAQDEATCVVYGMPREAVELGAAEDVLPLERIAAALLQQAARRGSGNRL
notes: source: E. coli BL21(DE3), purified (HisTrap HP)
For B1, the Kd came to 93 ± 15 µM.

The values above are taken from publication PMC7698151, “Evidence for Pentapeptide-Dependent and Independent CheB Methylesterases” (International Journal of Molecular Sciences, 2020).
